Data on 32 sequences can be found in the Immune Epitope Database (IEDB).

One assay deals with HLA-B*53:01. Kind of assay: IEDB peptide-MHC binding, purified MHC/competitive/radioactivity; filed as Kd, often an IC50 or EC50 that approximates it; ≥ and ≤ were set here for values at or beyond the usual limits of such assays.
In assay [1] the target is HLA-B*58:01. The assay is described as above.
The target of assay [2] is HLA-B*57:01. Described as above.
Assay [3] addresses HLA-B*40:01. The experiment in a line: IEDB peptide-MHC binding, purified MHC/competitive/fluorescence; filed as Kd, often an IC50 or EC50 that approximates it; ≥ and ≤ were set here for values at or beyond the usual limits of such assays.
Assay [4] concerns the target HLA-B*15:01. The assay is described as above.
The next assay concerns the target HLA-B*08:01. Kind of assay: IEDB peptide-MHC binding, purified MHC/competitive/fluorescence; ≥ and ≤ were set here for values at or beyond the usual limits of such assays.
Assay [5] deals with HLA-B*15:01. The assay is described as above.
Assay [6] has as its target HLA-A*01:01. Described as above.
Assay [7] deals with HLA-B*51:01. Kind of assay: IEDB peptide-MHC binding, purified MHC/direct/fluorescence; filed as Kd, often an IC50 or EC50 that approximates it; ≥ and ≤ were set here for values at or beyond the usual limits of such assays.
Assay [8] addresses HLA-B*35:01. The experiment in a line: IEDB peptide-MHC binding, purified MHC/competitive/radioactivity; filed as Kd, often an IC50 or EC50 that approximates it; ≥ and ≤ were set here for values at or beyond the usual limits of such assays.
Assay [9] has as its target HLA-A*24:02. Described as above. Particulars: source organism: Dengue virus 2 Jamaica/1409/1983.
For the next assay, the target named is HLA-A*32:01. Described as above.
In assay [10] the target is HLA-A*24:02. The experiment in a line: IEDB peptide-MHC binding, purified MHC/competitive/fluorescence; ≥ and ≤ were set here for values at or beyond the usual limits of such assays.
Assay [11] has as its target HLA-A*02:01. Described as above.
For assay [12], the target named is HLA-B*07:02. Kind of assay: IEDB peptide-MHC binding, purified MHC/competitive/fluorescence; filed as Kd, often an IC50 or EC50 that approximates it; ≥ and ≤ were set here for values at or beyond the usual limits of such assays.
Assay [13] addresses HLA-B*07:02. The experiment in a line: IEDB peptide-MHC binding, purified MHC/competitive/fluorescence; ≥ and ≤ were set here for values at or beyond the usual limits of such assays.
Assay [14] addresses HLA-A*29:02. The experiment in a line: IEDB peptide-MHC binding, purified MHC/competitive/fluorescence; filed as Kd, often an IC50 or EC50 that approximates it; ≥ and ≤ were set here for values at or beyond the usual limits of such assays.
The target in assay [15] is HLA-B*58:01. The experiment in a line: IEDB peptide-MHC binding, purified MHC/direct/fluorescence; filed as Kd, often an IC50 or EC50 that approximates it; ≥ and ≤ were set here for values at or beyond the usual limits of such assays. Particulars: source organism: Escherichia coli O157:H7.
The target in another assay is HLA-B*18:01. Described as above. Particulars: source organism: Escherichia coli O157:H7.
A further assay deals with HLA-A*03:01. Described as above. The settings on record: source organism: Escherichia coli O157:H7.
The target in another assay is HLA-B*48:01. The assay is described as above. Particulars: source organism: Escherichia coli O157:H7.
The next assay addresses HLA-B*27:05. Described as above. Particulars: source organism: Escherichia coli O157:H7.
The target of the next assay is HLA-A*11:01. Described as above. The settings on record: source organism: Escherichia coli O157:H7.
The target in another assay is HLA-B*44:02. The assay is described as above. The settings on record: source organism: Escherichia coli O157:H7.
Assay [16] concerns the target HLA-B*40:01. Described as above. Particulars: source organism: Escherichia coli O157:H7.
A further assay concerns the target HLA-B*46:01. The assay is described as above. The settings on record: source organism: Escherichia coli O157:H7.
The next assay concerns the target HLA-A*69:01. Described as above. The settings on record: source organism: Escherichia coli O157:H7.
Assay [17] concerns the target HLA-B*57:01. The description is as above. Particulars: source organism: Escherichia coli O157:H7.
In assay [18] the target is HLA-A*01:01. The assay is described as above. Particulars: source organism: Escherichia coli O157:H7.
Assay [19] deals with HLA-A*29:02. Described as above. The settings on record: source organism: Escherichia coli O157:H7.
In assay [20] the target is HLA-B*35:01. The experiment in a line: IEDB peptide-MHC binding, purified MHC/competitive/fluorescence; filed as Kd, often an IC50 or EC50 that approximates it; ≥ and ≤ were set here for values at or beyond the usual limits of such assays. The settings on record: source organism: Bacillus anthracis str. A2012.
Assay [21] concerns the target HLA-B*51:01. The assay is described as above. Particulars: source organism: Bacillus anthracis str. A2012.
Assay [22] concerns the target HLA-A*02:01. The assay is described as above. The settings on record: source organism: Francisella tularensis subsp. holarctica OSU18.
The target in the next assay is HLA-A*02:12. The assay is described as above. Particulars: source organism: Francisella tularensis subsp. holarctica OSU18.
[23] abbreviates: source organism: Dengue virus 3 Martinique/1243/1999.
The mark [24] stands for this setting: source organism: Escherichia coli O157:H7 str. EDL933.
The mark [25] stands for this setting: source organism: Zaire ebolavirus.
Where [26] appears, read: source organism: Yersinia pestis CO92.
The mark [27] stands for this setting: source organism: Sudan ebolavirus.
The mark [28] stands for this setting: source organism: Dengue virus 2 Jamaica/1409/1983.
Where [29] appears, read: source organism: Dengue virus 4 Philippines/H241/1956.
Where [30] appears, read: source organism: Vaccinia virus WR.
Setting [31] is: source organism: Bacillus anthracis str. A2012.
Setting [32] is: source organism: Dengue virus 1 Brazil/97-11/1997.

pIC50, pKd: −log10 of the molar value. A value given as a limit tells only on which side of the number the result lay.

Take AAVEDEDFW: the pKd with HLA-B*53:01 (setting [23]) was 6.48; with HLA-B*58:01 [1] (setting [23]), 6.95; in the assay with HLA-B*57:01 [2] (setting [23]), 5.95.
As to ASSGMLWMAE, the pKd in the assay with HLA-B*58:01 [1] (setting [23]) is 5.64; with HLA-B*57:01 [2] (setting [23]), ≤ 4.53.
Take FERGVINVF: the pKd in the assay with HLA-B*40:01 [3] (setting [24]) was 5.49; with HLA-B*15:01 [4] (setting [24]) it was 6.58.
For FEVKKRDGV, the negative-log IC50 (pIC50) with HLA-B*08:01 (setting [25]) is ≤ 3.80.
On to FSTSDGKEY, for which the pIC50 was 4.94 with HLA-B*15:01 [5] (setting [25]) and 4.84 in the assay with HLA-A*01:01 [6] (setting [25]).
Regarding GELIFSHNL, the pKd in the assay with HLA-B*40:01 [3] (setting [26]) is 8.15; with HLA-B*15:01 [4] (setting [26]), 5.50.
Turning to HKDGAFFLY, the pIC50 with HLA-A*01:01 [6] (setting [27]) is 5.20.
HPGFTILAL: the results for the pKd with HLA-B*53:01 (setting [23]) and with HLA-B*51:01 [7] (source organism: dengue virus type 3) were 9.52 and ≤ 4.70, respectively.
For the sequence IAASIILEF, the pKd with HLA-B*53:01 (setting [28]) was 7.58; with HLA-B*58:01 [1] (setting [28]), 8.15; in the assay with HLA-B*35:01 [8] (setting [28]) it was 7.66; with HLA-A*24:02 [9], 6.32.
With IAVSTANIF, the pKd is 6.82 with HLA-B*35:01 [8] (setting [29]) and 6.39 with HLA-B*57:01 [2] (setting [29]).
On to KMDNGTLEF, for which the pKd in the assay with HLA-A*32:01 (setting [30]) is 9.03. The pIC50 with HLA-A*24:02 [10] (setting [30]) is 5.97; with HLA-A*02:01 [11] (setting [30]), 5.20; in the assay with HLA-B*15:01 [5] (setting [30]), 4.61; with HLA-A*01:01 [6] (setting [30]) it was 4.82.
As for KTRTNDWDF, the pKd with HLA-B*57:01 [2] (source organism: Dengue virus 2 Peru/IQT2913/1996) was 8.18.
Turning to KTSIGLICVI, the pKd with HLA-B*57:01 [2] (setting [23]) was 6.67.
Consider LPFERATV, for which, in the assay with HLA-B*07:02 [12] (source organism: Influenza A virus (A/swine/Italy/2/1979(H1N1))), the pKd was 7.98.
LPWTKISET: the pIC50 in the assay with HLA-B*08:01 (setting [30]) is ≤ 4.06; with HLA-B*07:02 [13] (setting [30]), ≤ 4.09; with HLA-A*24:02 [10] (setting [30]), 4.18; with HLA-A*02:01 [11] (setting [30]), ≤ 3.39.
The sequence LWNPYEWYQ had a negative logarithm of the Kd (pKd) in the assay with HLA-A*29:02 [14] (setting [31]) of 6.28.
As to MLKLRQARL, the pKd with HLA-B*58:01 [15], with HLA-B*18:01, with HLA-A*03:01, in the assay with HLA-B*48:01, with HLA-B*27:05 and with HLA-A*11:01 was ≤ 4.70 each time. Besides, the negative logarithm of the Kd (pKd) with HLA-B*44:02, with HLA-B*40:01 [16], with HLA-B*46:01, with HLA-A*69:01, with HLA-B*57:01 [17] and with HLA-A*01:01 [18] was ≤ 4.70 throughout. The pKd in the assay with HLA-A*29:02 [19] was ≤ 4.70.
Consider MNHKNKFMA, for which the pIC50 is 4.70 with HLA-B*08:01 (setting [25]) and ≤ 3.85 with HLA-A*02:01 [11] (setting [25]).
For the sequence MPLKKQILF, the pKd with HLA-B*07:02 [12] (setting [31]) is 6.55; with HLA-B*35:01 [20], ≥ 10.00; with HLA-B*51:01 [21], 6.89.
Turning to MSSEGAWKQI, the pKd with HLA-B*58:01 [1] (setting [32]) was 6.10; with HLA-B*57:01 [2] (setting [32]) it was 6.64.
For the sequence RLDRPHTPQ, the figures for the pIC50 with HLA-B*07:02 [13] (setting [27]) and with HLA-A*02:01 [11] (setting [27]) were 4.54 and ≤ 4.05, respectively.
Consider RVWIEDNPW, for which the pKd was 8.68 with HLA-B*58:01 [1] (setting [23]), 7.14 with HLA-A*32:01 (setting [23]) and 7.30 with HLA-B*57:01 [2] (setting [23]).
On to SLFLPKLVV, for which the pIC50 with HLA-B*08:01 (setting [25]) was ≤ 3.53; with HLA-A*24:02 [10] (setting [25]), 4.34; with HLA-A*02:01 [11] (setting [25]), 6.70.
With SPGRKNGSF, the pKd with HLA-B*51:01 [7] (source organism: Yellow fever virus 1899/81) is ≤ 4.70.
For SVGHMMVIF, the pIC50 with HLA-B*07:02 [13] (setting [25]) was ≤ 3.56; with HLA-A*24:02 [10] (setting [25]) it was 5.62; with HLA-A*02:01 [11] (setting [25]) it was 4.73; with HLA-B*15:01 [5] (setting [25]), 4.98.
For the sequence SVYSWAIML, the pKd in the assay with HLA-A*02:01 [22] is 7.76; with HLA-A*02:12, 5.64.
Take TLDGQQFYW: the pIC50 was 6.74 in the assay with HLA-A*24:02 [10] (setting [25]), 5.65 in the assay with HLA-A*02:01 [11] (setting [25]) and 4.45 with HLA-A*01:01 [6] (setting [25]).
TVEGIGHHY had a pKd with HLA-A*29:02 [14] (source organism: Shigella sonnei Ss046) of 7.44.
As for VPKLLLWFN, the pIC50 was ≤ 3.09 in the assay with HLA-B*07:02 [13] (source organism: Variola virus) and 5.01 with HLA-A*24:02 [10] (source organism: Variola virus).
WMSSEGAWKQ: in the assay with HLA-B*58:01 [1] (setting [32]), the pKd is 5.11.
Take YETLVGLAI: the pKd in the assay with HLA-B*40:01 [3] (source organism: Salmonella enterica subsp. enterica serovar Typhi) is 8.40.
For YRHILRSQG, the pIC50 with HLA-B*08:01 (setting [25]) was ≤ 3.77.

Broadly, the pKd is the Kd on a negative log10 scale, so that one unit is a factor of ten. Broadly, the pIC50 is the IC50 on a negative log10 scale, so that one unit is a factor of ten. Read a low pIC50 as a large IC50.
